# The supplement of paper PMC7877785
# ± gives the uncertainty stated by the source.
# Assay: self-splicing fitness, log relative to wild type (ln ratio); higher = more splicing; Tetrahymena group I intron in knt gene, E. coli kanamycin selection, DiMSum; sequences stand for … in CUCUCU…GGAGGGAAAAGUUAUCAGGCAUGCACCUGGUAGCUAGUCUUUAAACCAAUAGAUUGCAUCGGUUUAAAAGGCAAGACCGUCAAAUUGCGGGAAAGGGGUCAACAGCCGUUCAGUACCAAGUCUCAGGGGAAACUUUGAGAUGGCCUUGCAAAGGGUAUGGUAAUAAGCUGACGGACAUGGUCCUAACCACGCAGCCAAGUCCUAAGUCAACAGAUCUUCUGUUGAUAUGGAUGCAGUUCACAGACUAAAUGUCGGUCGGGGAAGAUGUAUUCUUCUCAUAAGAUAUAGUCGGACCUCUCCUUAAUGGGAGCUAGCGGAUGAAGUGAUGCAACACUGGAGCCGCUGGGAACUAAUUUGUAUGCGAAAGUAUAUUGAUUAGUUUUGGAGUACUCGUGGUCG
# How it was run: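 Six replicate transformations of E. coli BL21(DE3) with a pET-22b(+) library were grown overnight at 37°C or 30°C. The library randomised all eight P1ex-region intron nucleotides, the intron lying in the knt kanamycin-resistance gene, and plates were LB agar with or without 25 μg/mL kanamycin plus 100 μg/mL carbenicillin, 50 μM IPTG and 0.2% rhamnose. Pooled colonies were amplicon-sequenced on an Illumina HiSeq 2500, and fitness is the DiMSum error-weighted combination of wild-type-normalised replicate fold changes, kanamycin versus none.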
Sequence,self-splicing fitness (ln) (30 °C),self-splicing fitness (ln) (37 °C)
CUGCAGCAAUAUUACGGGCU,-4.01 ± 0.17,-1.81 ± 0.17
CUGCAGCAAUAUUACGUACC,-3.22 ± 0.19,-2.68 ± 0.44
CUGCAGCAAUAUUACGUAGC,-2.66 ± 0.15,-1.95 ± 0.18
CUGCAGCAAUAUUACGUCUU,-3.15 ± 0.11,-2.64 ± 0.12
CUGCAGCAAUAUUACGUGUG,-1.65 ± 0.043,-1.27 ± 0.06
CUGCAGCAAUAUUACGUUAG,-2.97 ± 0.1,-1.19 ± 0.1
CUGCAGCAAUAUUACGUUGA,-3.42 ± 0.2,-3.21 ± 0.24
CUGCAGCAAUAUUACGUUGG,-2.82 ± 0.14,-3.09 ± 0.27
CUGCAGCAAUAUUACGUUUG,-2.61 ± 0.094,-0.958 ± 0.098
CUGGAGCAAUAUUACGACGG,-3.79 ± 0.38,-3.09 ± 0.43
CUGGAGCAAUAUUACGAGUU,-2.26 ± 0.13,-3.51 ± 0.33
CUGGAGCAAUAUUACGAUAU,-2.36 ± 0.35,-2.54 ± 0.41
CUGGAGCAAUAUUACGCAAG,-2.82 ± 0.21,-2.08 ± 0.27
CUGGAGCAAUAUUACGCAUG,-2.07 ± 0.13,-0.898 ± 0.17
CUGGAGCAAUAUUACGCCGA,-1.18 ± 0.34,
CUGGAGCAAUAUUACGCGCG,-2.2 ± 0.14,-0.917 ± 0.13
CUGGAGCAAUAUUACGCGUC,-3.41 ± 0.27,-1.76 ± 0.27
CUGGAGCAAUAUUACGCUCA,-3.4 ± 0.36,-0.5 ± 0.3
CUGGAGCAAUAUUACGCUUU,-3.02 ± 0.32,-3.22 ± 0.47
CUGGAGCAAUAUUACGGAAC,-3.5 ± 0.33,-2.64 ± 0.3

Sequence,self-splicing fitness (ln) (30 °C),self-splicing fitness (ln) (37 °C)
CUGGAGCAAUAUUACGGACU,-3.12 ± 0.25,-2.07 ± 0.46
CUGGAGCAAUAUUACGGCAU,-3.26 ± 0.47,
CUGGAGCAAUAUUACGGCUA,,-1.11 ± 0.47
CUGGAGCAAUAUUACGGGAG,-3.19 ± 0.28,-0.913 ± 0.19
CUGGAGCAAUAUUACGGGCA,-1.06 ± 0.38,
CUGGAGCAAUAUUACGGUGC,-3.49 ± 0.48,
CUGGAGCAAUAUUACGUAAC,-3.25 ± 0.32,-1.86 ± 0.3
CUGGAGCAAUAUUACGUGCU,-2.27 ± 0.23,-2.91 ± 0.34
CUGUAGCAAUAUUACGAAAG,-1.61 ± 0.1,-0.788 ± 0.14
CUGUAGCAAUAUUACGACAG,-4.61 ± 0.3,-1.97 ± 0.21
CUGUAGCAAUAUUACGACGU,-1.13 ± 0.21,-1.54 ± 0.26
CUGUAGCAAUAUUACGAGGA,-2.78 ± 0.41,-1.62 ± 0.32
CUGUAGCAAUAUUACGCAAU,-2.63 ± 0.36,-1.99 ± 0.25
CUGUAGCAAUAUUACGCAGG,-3.56 ± 0.27,-2.73 ± 0.2
CUGUAGCAAUAUUACGCGAA,-1.86 ± 0.35,-2.26 ± 0.45
CUGUAGCAAUAUUACGCUCG,-1 ± 0.18,-0.773 ± 0.25
CUGUAGCAAUAUUACGCUUA,-3.24 ± 0.37,-3.24 ± 0.43
CUGUAGCAAUAUUACGGGUU,-3.94 ± 0.23,-3.13 ± 0.31
CUGUAGCAAUAUUACGGUCU,-3.53 ± 0.14,-2.96 ± 0.21
